Source: patent US20110124572A1 (published 2011)

Target: small GTPase Rac1 (UniProt P63000 1-189)
Assay: immunoprecipitation with Tiam-1 antiserum from MCF-7 line lysates, blot with anti-Rac1
Description: In brief, 70% confluent cultures of 25 mL flask were detached, pelleted and following 2 times washing with PBS. The pellet were lysed in RIPA buffer then centrifuged and the supernatant was pre-cleared by addition of 5 μL of protein A/G-sepharose beads slurry (Pierce) for 2 hours, then the supernatant was incubated with the antibody of interest for 24 hours. 10 μL of protein A/G slurry was added for 2 hours, collected by pulse centrifugation, washed 3 times with lysis buffer, resuspended in 2×SDS loading buffer subjected to SDS-PAGE, followed by immunoblotting with the appropriate antibodies.

binding result: binds
B1: Tiam-1, Rac1-specific guanine nucleotide exchange factor (RacGEF) (enzyme)
chain: GNAESQHVEHEFYGEKHASLGRKHTSRSLRLSHKTRRTRHASSGKVIHRNSEVSTRSSSTPSIPQSLAENGLEPFSQDGTLEDFGSPIWVDRVDMGLRPVSYTDSSVTPSVDSSIVLTAASVQSMPDTEESRLYGDDATYLAEGGRRQHSYTSNGPTFMETASFKKKRSKSADIWREDSLEFSLSDLSQEHLTSNEEILGSAEEKDCEEARGMETRASPRQLSTCQRANSLGDLYAQKNSGVTANGGPGSKFAGYCRNLVSDIPNLANHKMPPAAAEETPPYSNYNTLPCRKSHCLSEGATNPQISHSNSMQGRRAKTTQDVNAGEGSEFADSGIEGATTDTDLLSRRSNATNSSYSPTTGRAFVGSDSGSSSTGDAARQGVYENFRRELEMSTTNSESLEEAGSAHSDEQSSGTLSSPGQSDILLTAAQGTVRKAGALAVKNFLVHKKNKKVESATRRKWKHYWVSLKGCTLFFYESDGRSGIDHNSIPKHAVWVENSIVQAVPEHPKKDFVFCLSNSLGDAFLFQTTSQTELENWITAIHSACATAVARHHHKEDTLRLLKSEIKKLEQKIDMDEKMKKMGEMQLSSVTDSKKKKTILDQIFVWEQNLEQFQMDLFRFRCYLASLQGGELPNPKRLLAFASRPTKVAMGRLGIFSVSSFHALVAARTGETGVRRRTQAMSRSASKRRSRFSSLWGLDTTSKKKQGRPSINQVFGEGTEAVKKSLEGIFDDIVPDGKREKEVVLPNVHQHNPDCDIWVHEYFTPSWFCLPNNQPALTVVRPGDTARDTLELICKTHQLDHSAHYLRLKFLIENKMQLYVPQPEEDIYELLYKEIEICPKVTQSIHIEKSDTAADTYGFSLSSVEEDGIRRLYVNSVKETGLASKKGLKAGDEILEINNRAADALNSSMLKDFLSQPSLGLLVRTYPELEEGVELLESPPHRVDGPADLGESPLAFLTSNPGHSLCSEQGSSAETAPEETEGPDLESSDETDHSSKSTEQVAAFCRSLHEMNPSDQSPSPQDSTGPQLATMRQLSDADKLRKVICELLETERTYVKDLNCLMERYLKPLQKETFLTQDELDVLFGNLTEMVEFQVEFLKTLEDGVRLVPDLEKLEKVDQFKKVLFSLGGSFLYYADRFKLYSAFCASHTKVPKVLVKAKTDTAFKAFLDAQNPKQQHSSTLESYLIKPIQRILKYPLLLRELFALTDAESEEHYHLDVAIKTMNKVASHINEMQKIHEEFGAVFDQLIAEQTGEKKEVADLSMGDLLLHTTVIWLNPPASLGKWKKEPELAAFVFKTAVVLVYKDGSKQKKKLVGSHRLSIYEDWDPFRFRHMIPTEALQVRALASADAEANAVCEIVHVKSESEGRPERVFHLCCSSPESRKDFLKAVHSILRDKHRRQLLKTESLPSSQQYVPFGGKRLCALKGARPAMSRAVSAPSKSLGRRRRRLARNRFTIDSDAVSASSPEKESQQPPGGGDTDRWVEEQFDLAQYEEQDDIKETDILSDDDEFCESVKGASVDRDLQERLQATSISQRERGRKTLDSHASRMAQLKKQAALSGINGGLESASEEVIWVRREDFAPSRKLNTEI
notes: Endogenous protein in MCF-7 cell lysate
